Experiment: yeast display, Sf9 membrane polyspecificity reagent, FACS + sequencing; frameworks hold sequencing errors
Procedure, shortened: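 Sorting gates, low and high (top ~1%), were placed on anti-HA fluorescence to track expression and on streptavidin fluorescence to track reagent binding. A clone's polyreactivity label is taken from the gate it came out of. The reagent was 10% biotinylated, detergent-solubilized Sf9 membrane, applied for 1 hour at 4 °C to galactose-induced yeast display cells.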

Row | Sequence | polyreactivity (PSR sort gate)
1 | QVQLVESGGGLVQAGGSLRLSCDASGLIFVDNAMGWYRQAPGKERELVAAIDSGGSTNYADSVKGRFTISRDNAKNTVYLQMNSLKPEDTAVYYCAANTYYWWGIMDYWGPGTQVTVSS | low polyreactivity
2 | QVKLVESGGRLVQAGGILRLSSPASGFIFRGYARGWYRQAPGKERELVAAINSGGSTNYADSVKGRFTISRDNAKNTVYLQMIRLKPEETAVYYCAARVKTSYRYLRTYNYWGLGTQVTVSS | high polyreactivity
3 | QVQLVESGGGLVQAGGSLRLSCAASASTFGGYVMARYRQAPGKERELVAAISGNGASTTYADSVKGRFTISRDNAKNTVYLQMNSLKPEDTAVYDSAALFRKAHSDYDYWGQGTQVTVSS | low polyreactivity
4 | QVQLVESGGGLVQAGGSLRLSCAASGYTFHGNAMGWYRQAPGKERELVAAISRNGGRTYYADSVKGRFTISRDNAKNTVYLQMHSLKPEDTAVYYCNASKFYGVRFKYDYWGQGTQVTVSS | high polyreactivity
5 | QVQLVESGGGLVQAGGSLRLSCAASGRIFQYNAMGWYRQATGKERELVAAITWSSGSTYYADSVKGRFTISRDNAKNTVYLQMNSLKPEDTAVYYCNTVRVLYYDRQFLFRGSRFGYWGQGTQVTVSS | high polyreactivity
6 | QVQLVESGGGLVQAGGSLRLSCAASGIIFPWYTMGWYRQAPGKERELVAAISSGGRTNYADSVKGRFTISRDNAKNTVYLQMNSLKPEDTAVYYCAAKFYRDRDWGQGTQVTVSS | high polyreactivity
7 | QVQLVESGGGLVQAGGSLRLSCPASGSICRYYAMGWYRQAPGKERELVAVITRGGSTYYADSVKGRFTISRDNAKNTVYLQMNSLKPEDTAVYYCAADYWPAGLDRGYWGQGTQVTLSS | low polyreactivity
8 | QVHLVESGGGLVQAGGSLRLSCAASGRIFAGYAMGWYRQAPGKERELVATITRGGSTNYADSVKRPFTISRDNAKNTVYLQMNSLKPEDTAVYYCADVTWYEEYDSWGQGTQVTVSS | low polyreactivity
9 | QVQLVESGGGLVQAGGSLRLSCAASGRTLERYSMGWYRQAPGKEREFVAAIRWSGGSTYYADSVKGRFTISRDNAKNTVYLQMNSLKPEDTAVYYCNADWQSYYWAGDGYDYWGQGTQVTVSS | low polyreactivity
10 | QVQLVESGGGLVQAGGSLRLSCAASGGILVGYALGWYRQAPGKERELVAAITSTGSTYYADSVKGRFTISRDNAKNTVYLQMNSLKPEDTAVYYCNAIGLHRYDYWGQGTQETVSS | low polyreactivity
11 | QVQLEESGGAFVQAGGSLRLSCAASGFIFVPYSMGWYREAPGKEREFVAAITASGGNTYYADSVKGRFSISRDNAKNTVYLQMNSVKPEDTAVYYCAADISGSLESLDYWGQGTQVTGSS | low polyreactivity
12 | QVQLEESGGGLVQAGGSLRLSCAASGSTFTEYVMGWYRHATGKERELVAAIRSNGGSTYYADSVKGRFTISRDNAKNTVYLQMHSLNPEDTAVYYCNRVYSRRTYNSPLYDDWGQGTQVTVSS | high polyreactivity
13 | QVQLVESGGGIVQAGGSLRISCAASGYTFKWYDMGWYRQAPGKEWELVASISWRGGSTYYADSVKGRYTISRDNAKNTVYFQMNSLKPEDTAVYYCAASLWPDYEYDYWGQGTQVTVSS | low polyreactivity
14 | QVQLVESGGGLVQAGGSLRLSCAASGFIFGGYVMGWYRQAPGKERELVAAITWSGGSTYYADSVKGRFTISRDNAKHTVYVQLNSQKREDTAVYYCNSRVPARLWRWSPYPVDYWGQGTQVTLSS | high polyreactivity
15 | QVQLVESGGGLVQAGGSLRLSCAASGSTLVIYAMGWSRQAPGKEREFVAAIRWSTGRTYYADSVKGRFTISRDNAKNTVYLQMNSLKPEDTAVYYCNASYWAPNSLPDGFRYDSWGQGTQVTVSS | high polyreactivity
16 | QVQLVESGGGLVQAGGSLRLSCAASGITFTGYAMGWYRPAPGKERELGAAITWSSGSTYYADSVKGRFTISRDNAKNTVYLQMNSLKPEDTAVYYCAAEVNVGTLLLSVIVEDGDYWGQGTQVTVSS | low polyreactivity

Source: the nanobody polyreactivity screen of Harvey et al. (2022)
